US20190233493A1 (Sanofi, published 2019)
*1 amine or outer side, *2 acyl side, *3 side chain or, on linkers, in order; H or OH if unused. Primed or numbered codes have the meaning given here. Side-chain parts run from the residue outwards. [ ]: non-standard residue; d: D form. The star is where a group is joined. PEG8′ = 2-[2-[2-[2-[2-[2-[2-[2-[2-aminoethoxy]ethoxy]ethoxy]ethoxy]ethoxy]ethoxy]ethoxy]ethoxy]ethoxy]propanoyl; TTDS″ = 4-[3-[2-[2-(3-aminopropoxy)ethoxy]ethoxy]propylamino]-4-oxo-butanoyl; TtdDga = O=C(COCC(=O)[*:2])NCCCOCCOCCOCCCN[*:1]; γGlu = O=C(O)[C@H](CCC(=O)[*:2])N[*:1]; Pentadecanoyl = CCCCCCCCCCCCCCC(=O)*; Stearoyl = CCCCCCCCCCCCCCCCCC(=O)*; Palmitoyl = CCCCCCCCCCCCCCCC(=O)*; αMeK = C[C@](N)(CCCCN)C(=O)O; Nle = CCCC[C@H](N)C(=O)O; PEG2′ = PEG2 spacer unit; Aib = CC(C)(N)C(=O)O

Target: T1, RXFP1 receptor (UniProt Q9HBX9 1-757, limits assumed)
T1 sequence (looked up): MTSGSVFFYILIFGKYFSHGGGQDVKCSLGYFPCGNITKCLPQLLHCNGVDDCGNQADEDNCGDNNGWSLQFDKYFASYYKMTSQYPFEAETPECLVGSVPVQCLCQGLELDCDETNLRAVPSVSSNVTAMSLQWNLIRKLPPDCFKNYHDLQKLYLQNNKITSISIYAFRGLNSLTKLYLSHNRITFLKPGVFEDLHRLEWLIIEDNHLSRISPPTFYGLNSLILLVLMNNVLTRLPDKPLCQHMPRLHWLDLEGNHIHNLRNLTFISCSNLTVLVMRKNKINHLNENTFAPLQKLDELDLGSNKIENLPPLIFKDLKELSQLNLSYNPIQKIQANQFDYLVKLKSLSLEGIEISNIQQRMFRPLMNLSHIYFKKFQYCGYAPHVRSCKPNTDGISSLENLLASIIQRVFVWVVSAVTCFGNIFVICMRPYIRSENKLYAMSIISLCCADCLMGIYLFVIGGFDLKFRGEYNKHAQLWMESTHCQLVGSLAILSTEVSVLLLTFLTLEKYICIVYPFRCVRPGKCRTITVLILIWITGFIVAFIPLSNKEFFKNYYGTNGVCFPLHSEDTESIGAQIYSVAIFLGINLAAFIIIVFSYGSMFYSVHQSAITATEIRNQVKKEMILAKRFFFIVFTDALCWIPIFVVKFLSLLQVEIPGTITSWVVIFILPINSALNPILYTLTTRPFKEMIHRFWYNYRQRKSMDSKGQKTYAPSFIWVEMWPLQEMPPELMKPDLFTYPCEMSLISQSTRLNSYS
Test: cell-based or functional assay

Ac-LEGREKVRAK(Ac)I[Aib][Aib]EGQSTWS[Aib]RKK(Ac)K([PEG2′-PEG2′-PEG2′-PEG2′-γGlu-γGlu-γGlu-γGlu-Stearoyl])-NH2 [peptide of SEQ ID NO: 180]
EC50 (nM), OVCAR 5 cells (cAMP): 1.18 nM | EMax, OVCAR 5 cells (cAMP): 84%

B1: peptide of SEQ ID NO: 19 (peptide)
peptide: Ac-LEGREKVRAK(Ac)I[Aib][Aib]EG[Nle]STWS[Aib]RKK(Ac)[TtdDga][TtdDga]K([γGlu-γGlu-γGlu-Stearoyl])-NH2
SMILES: CCCCCCCCCCCCCCCCCC(=O)N[C@@H](CCC(=O)N[C@@H](CCC(=O)N[C@@H](CCC(=O)NCCCC[C@H](NC(=O)COCC(=O)NCCCOCCOCCOCCCNC(=O)COCC(=O)NCCCOCCOCCOCCCNC(=O)[C@H](CCCCNC(C)=O)NC(=O)[C@H](CCCCN)NC(=O)[C@H](CCCNC(=N)N)NC(=O)C(C)(C)NC(=O)[C@H](CO)NC(=O)[C@H](Cc1c[nH]c2ccccc12)NC(=O)[C@@H](NC(=O)[C@H](CO)NC(=O)[C@H](CCCC)NC(=O)CNC(=O)[C@H](CCC(=O)O)NC(=O)C(C)(C)NC(=O)C(C)(C)NC(=O)[C@@H](NC(=O)[C@H](CCCCNC(C)=O)NC(=O)[C@H](C)NC(=O)[C@H](CCCNC(=N)N)NC(=O)[C@@H](NC(=O)[C@H](CCCCN)NC(=O)[C@H](CCC(=O)O)NC(=O)[C@H](CCCNC(=N)N)NC(=O)CNC(=O)[C@H](CCC(=O)O)NC(=O)[C@H](CC(C)C)NC(C)=O)C(C)C)[C@@H](C)CC)[C@@H](C)O)C(N)=O)C(=O)O)C(=O)O)C(=O)O
EC50 (nM), OVCAR 5 cells (cAMP): 0.15 nM | EMax, OVCAR 5 cells (cAMP): 96%

Ac-LEGREKVRAK(Ac)I[Aib][Aib]EGQSTFS[αMeK]RAK(Ac)[PEG2′][PEG2′][PEG2′][PEG2′][γGlu][γGlu]K([γGlu-γGlu-Palmitoyl])-NH2 [peptide of SEQ ID NO: 185]
EC50 (nM), OVCAR 5 cells (cAMP): 0.05 nM | EMax, OVCAR 5 cells (cAMP): 100%

Ac-LEGREKVRAK(Ac)I[Aib][Aib]EGQSTFS[αMeK]RAK(Ac)[PEG2′][PEG2′][PEG2′][PEG2′][γGlu][γGlu]K([γGlu-γGlu-Pentadecanoyl])-NH2 [peptide of SEQ ID NO: 186]
EC50 (nM), OVCAR 5 cells (cAMP): 0.18 nM | EMax, OVCAR 5 cells (cAMP): 100%

Ac-LEGREKVRAK(Ac)I[Aib][Aib]EGQSTYS[Aib]RKK(Ac)[PEG2′][PEG2′][PEG2′]K([γGlu-γGlu-γGlu-Palmitoyl])-NH2 [peptide of SEQ ID NO: 179]
EC50 (nM), OVCAR 5 cells (cAMP): 19.9 nM | EMax, OVCAR 5 cells (cAMP): 80%

Ac-LEGREKVRAK(Ac)I[Aib][Aib]EGQSTFS[αMeK]RAK(Ac)[PEG2′][PEG2′][PEG2′][PEG2′]K([γGlu-γGlu-γGlu-γGlu-Pentadecanoyl])-NH2 [peptide of SEQ ID NO: 182]
EC50 (nM), OVCAR 5 cells (cAMP): 0.19 nM | EMax, OVCAR 5 cells (cAMP): 99%

Ac-LEGREKVRAK(Ac)I[Aib][Aib]EG[Nle]STWS[Aib]RKK(Ac)[PEG8′]K([γGlu-γGlu-γGlu-Palmitoyl])-NH2 [peptide of SEQ ID NO: 181]
EC50 (nM), OVCAR 5 cells (cAMP): 1.63 nM | EMax, OVCAR 5 cells (cAMP): 79%

Ac-LEGREKVRAK(Ac)I[Aib][Aib]EG[Nle]STFS[αMeK]RAK(Ac)K([TTDS″-TTDS″-TTDS″-γGlu-γGlu-γGlu-Palmitoyl])-NH2 [peptide of SEQ ID NO: 183]
EC50 (nM), OVCAR 5 cells (cAMP): 0.08 nM | EMax, OVCAR 5 cells (cAMP): 94%
